Source: article doi:10.1101/2021.06.15.448513

Target: PaPlaB, phospholipase B of Pseudomonas aeruginosa PA01 (gene pa2927) (P. aeruginosa PA01)
Experiment: SEC-MALS

“PaPlaB, phospholipase B of Pseudomonas aeruginosa PA01 (gene pa2927) (enzyme)” was tested, and the stoichiometry N was 7.
